The record followed here is patent publication US6358732.

For this data set, the system named is CDF (CDE-binding factor). Nature of the data set: cell_activity. The note with it: transient transfection NIH3T3, luciferase; indirect.

Consider cdc25C promoter CDE-CHR region, for which the activity (fold growing/G0) was 17.5.
